Reference: article PMC10902351

Legend:
[1] = molecular target: Toxoplasma gondii actin (TgAct1), untagged (Toxoplasma gondii) (UniProt P53476); test: epifluorescence microscopy of single filament growth (in vitro actin growth assay); actin growth assay with inclusion of 0.1 mM AMPPNP, compared to MgATP conditions
[2] = molecular target: Toxoplasma gondii actin (TgAct1), untagged (Toxoplasma gondii) (UniProt P53476)

Substance: Toxoplasma gondii actin (TgAct1), untagged (from UniProt P53476 1-376) (natural protein)
- fold change of the critical concentration with 0.1 mM AMPPNP against MgATP conditions [1]: 2 fold
- phosphate (Pi) release after inducing polymerization of 12 µM TgAct1, MESG assay, 1-hour time course (phosphates per TgAct1 in 1 hour) [2]: 3
